Measurements as given in the supplement of paper PMC11246515.
± gives the standard deviation of the averaged measurements.

Test: total protein half-life in vivo (active degradation + dilution); higher = more stable protein
[1] = E. coli NCM3722 delta-clpP delta-lon delta-hslV, growth: N-lim chemostat, doubling time 6 h
[2] = E. coli NCM3722 delta-clpP, growth: N-lim chemostat, doubling time 6 h
[3] = E. coli NCM3722 delta-hslV, growth: N-lim chemostat, doubling time 6 h
[4] = E. coli NCM3722 delta-lon, growth: N-lim chemostat, doubling time 6 h
[5] = E. coli NCM3722 delta-smpB, growth: N-lim chemostat, doubling time 6 h
[6] = wild type E. coli NCM3722, growth: C-lim chemostat, doubling time 3 h
[7] = wild type E. coli NCM3722, growth: C-lim chemostat, doubling time 6 h
[8] = wild type E. coli NCM3722, growth: C-lim chemostat, doubling time 12 h
[9] = wild type E. coli NCM3722, growth: N-lim chemostat, doubling time 6 h
[10] = wild type E. coli NCM3722, growth: N-lim chemostat, doubling time 12 h
[11] = wild type E. coli NCM3722, growth: P-lim chemostat, doubling time 6 h
[12] = wild type E. coli NCM3722, growth: P-lim chemostat, doubling time 12 h

Sequence | total protein half-life in vivo [1] [h] | total protein half-life in vivo [2] [h] | total protein half-life in vivo [3] [h] | total protein half-life in vivo [4] [h] | total protein half-life in vivo [5] [h] | total protein half-life in vivo [6] [h] | total protein half-life in vivo [7] [h] | total protein half-life in vivo [8] [h] | total protein half-life in vivo [9] [h] | total protein half-life in vivo [10] [h] | total protein half-life in vivo [11] [h] | total protein half-life in vivo [12] [h]
MSDSQTLVVKLGTSVLTGGSRRLNRAHIVELVRQCAQLHAAGHRIVIVTSGAIAAGREHLGYPELPATIASKQLLAAVGQSRLIQLWEQLFSIYGIHVGQMLLTRADMEDRERFLNARDTLRALLDNNIVPVINENDAVATAEIKVGDNDNLSALAAILAGADKLLLLTDQKGLYTADPRSNPQAELIKDVYGIDDALRAIAGDSVSGLGTGGMSTKLQAADVACRAGIDTIIAAGSKPGVIGDVMEGISVGTLFHAQATPLENRKRWIFGAPPAGEITVDEGATAAILERGSSLLPKGIKSVTGNFSRGEVIRICNLEGRDIAHGVSRYNSDALRRIAGHHSQEIDAILGYEYGPVAVHRDDMITR [P0A7B5] | 3.94 ± 0.49 | 3.94 ± 0.43 | 4.25 ± 0.076 | 5.654 ± 0.012 | 3.57 ± 0.05 | 2.98 ± 0.13 | 5.35 ± 0.17 | 9.09 ± 0.098 | 4.4 ± 0.31 | 9.48 ± 1.3 | 5.69 ± 0.71 | 11.7 ± 0.25
MSDTLLTLRDVHINFPARKNWLGKTTEHVHAINGIDLQIRRGETLGIVGESGCGKSTLAQLLMGMLQPSHGQYIRSGSQRIMQMVFQDPLSSLNPRLPVWRIITEPLWIAKRSSEQQRRALAEELAVQVGIRPEYLDRLPHAFSGGQRQRIAIARALSSQPDVIVLDEPTSALDISVQAQILNLLVTLQENHGLTYVLISHNVSVIRHMSDRVAVMYLGQIVELGDAQQVLTAPAHPYTRLLLDSLPAIDKPLEEEWALRKTDLPGNRTLPQGCFFYERCPLATHGCEVRQSLAIREDGRELRCWRAL |  | 3.45 |  |  | 4.17 ± 0.074 | 1.74 | 4.55 |  | 4.44 | 6.31 ± 0.42 |  | 
MSDWNPSLYLHFSAERSRPAVELLARVPLENVEYVADLGCGPGNSTALLQQRWPAARITGIDSSPAMIAEARSALPDCQFVEADIRNWQPVQALDLIFANASLQWLPDHYELFPHLVSLLNPQGVLAVQMPDNWLEPTHVLMREVAWEQNYPDRGREPLAGVHAYYDILSEAGCEVDIWRTTYYHQMPSHQAIIDWVTATGLRPWLQDLTESEQQLFLKRYHQMLEEQYPLQENGQILLAFPRLFIVARRME | 3.89 ± 0.51 | 5.9 ± 1.7 | 4.82 ± 0.7 | 6.54 ± 1.9 | 3.62 ± 0.042 | 3.29 ± 0.6 |  | 9.97 ± 1.8 | 4.14 ± 0.17 | 4.96 | 5.89 ± 0.061 | 11 ± 0.27
MSDYQMFEVQVSQVEPLTEQVKRFTLVATDGKPLPAFTGGSHVIVQMSDGDNQYSNAYSLLSSPHDTSCYQIAVRLEENSRGGSRFLHQQVKVGDRLTISTPNNLFALIPSARKHLFIAGGIGITPFLSHMAELQHSDVDWQLHYCSRNPESCAFRDELVQHPQAEKVHLHHSSTGTRLELARLLADIEPGTHVYTCGPEALIEAVRSEAARLDIAADTLHFEQFAIEDKTGDAFTLVLARSGKEFVVPEEMTILQVIENNKAAKVECLCREGVCGTCETAILEGEADHRDQYFSDEERASQQSMLICCSRAKGKRLVLDL |  |  |  |  |  | 3.41 |  |  |  |  |  | 
MSEALKILNNIRTLRAQARECTLETLEEMLEKLEVVVNERREEESAAAAEVEERTRKLQQYREMLIADGIDPNELLNSLAAVKSGTKAKRAQRPAKYSYVDENGETKTWTGQGRTPAVIKKAMDEQGKSLDDFLIKQ [P0ACF8] |  |  | 6.19 ± 0.062 | 7.64 ± 0.48 | 5.87 ± 1.2 | 2.9 ± 0.29 | 6.22 ± 0.29 | 9.37 ± 0.21 | 5.27 ± 0.45 | 11.6 ± 2.7 | 5.16 ± 0.77 | 11.7 ± 0.41
MSEDIFDAIIVGAGLAGSVAALVLAREGAQVLVIERGNSAGAKNVTGGRLYAHSLEHIIPGFADSAPVERLITHEKLAFMTEKSAMTMDYCNGDETSPSQRSYSVLRSKFDAWLMEQAEEAGAQLITGIRVDNLVQRDGKVVGVEADGDVIEAKTVILADGVNSILAEKLGMAKRVKPTDVAVGVKELIELPKSVIEDRFQLQGNQGAACLFAGSPTDGLMGGGFLYTNENTLSLGLVCGLHHLHDAKKSVPQMLEDFKQHPAVAPLIAGGKLVEYSAHVVPEAGINMLPELVGDGVLIAGDAAGMCMNLGFTIRGMDLAIAAGEAAAKTVLSAMKSDDFSKQKLAEYRQHLESGPLRDMRMYQKLPAFLDNPRMFSGYPELAVGVARDLFTIDGSAPELMRKKILRHGKKVGFINLIKDGMKGVTVL |  |  |  |  |  |  |  | 9.28 |  |  |  | 
MSEISRQEFQRRRQALVEQMQPGSAALIFAAPEVTRSADSEYPYRQNSDFWYFTGFNEPEAVLVLIKSDDTHNHSVLFNRVRDLTAEIWFGRRLGQDAAPEKLGVDRALAFSEINQQLYQLLNGLDVVYHAQGEYAYADVIVNSALEKLRKGSRQNLTAPATMIDWRPVVHEMRLFKSPEEIAVLRRAGEITAMAHTRAMEKCRPGMFEYHLEGEIHHEFNRHGARYPSYNTIVGSGENGCILHYTENECEMRDGDLVLIDAGCEYKGYAGDITRTFPVNGKFTQAQREIYDIVLESLETSLRLYRPGTSILEVTGEVVRIMVSGLVKLGILKGDVDELIAQNAHRPFFMHGLSHWLGLDVHDVGVYGQDRSRILEPGMVLTVEPGLYIAPDAEVPEQYRGIGIRIEDDIVITETGNENLTASVVKKPEEIEALMVAARKQ | 5.813 ± 0.036 | 6.45 ± 0.88 | 5.23 ± 0.15 | 6 ± 0.092 | 5.36 ± 0.3 | 3.12 ± 0.1 | 6 ± 0.22 | 12.4 ± 1.5 | 5.53 ± 0.15 | 10.3 ± 0.72 | 5.95 ± 0.51 | 12.8 ± 0.42
MSEIVVSKFGGTSVADFDAMNRSADIVLSDANVRLVVLSASAGITNLLVALAEGLEPGERFEKLDAIRNIQFAILERLRYPNVIREEIERLLENITVLAEAAALATSPALTDELVSHGELMSTLLFVEILRERDVQAQWFDVRKVMRTNDRFGRAEPDIAALAELAALQLLPRLNEGLVITQGFIGSENKGRTTTLGRGGSDYTAALLAEALHASRVDIWTDVPGIYTTDPRVVSAAKRIDEIAFAEAAEMATFGAKVLHPATLLPAVRSDIPVFVGSSKDPRAGGTLVCNKTENPPLFRALALRRNQTLLTLHSLNMLHSRGFLAEVFGILARHNISVDLITTSEVSVALTLDTTGSTSTGDTLLTQSLLMELSALCRVEVEEGLALVALIGNDLSKACGVGKEVFGVLEPFNIRMICYGASSHNLCFLVPGEDAEQVVQKLHSNLFE | 4.06 ± 0.69 | 2.98 ± 0.29 | 2.67 ± 0.073 | 3.15 ± 0.3 | 2.54 ± 0.31 | 3.142 ± 0.0098 | 4.67 ± 0.34 | 8.44 ± 2.4 | 2.9 ± 0.23 | 4.25 ± 0.55 | 5.46 ± 0.4 | 10.1 ± 1.1
